This is an account of results in patent US20220056094A1 (JIANGSU HENGRUI MEDICINE, published 2022).

As usually defined, the Kd is the constant that tells how readily two partners part at equilibrium. What is called koff is the rate constant with which the complex falls apart. Read a low koff as slow dissociation. By kon is commonly meant the rate constant with which the complex forms. Read a high kon as fast association.

Substitutions are numbered along the chain they refer to. Names may count otherwise.

For experiment [1], the target named is T1, his-tagged human IL-2Rα recombinant protein (SinoBiological, Cat #10165-H08H) (human, UniProt P01589 22-213).
T1 construct: Bought protein; also called IL-2Rα (His Tag)
T1 sequence: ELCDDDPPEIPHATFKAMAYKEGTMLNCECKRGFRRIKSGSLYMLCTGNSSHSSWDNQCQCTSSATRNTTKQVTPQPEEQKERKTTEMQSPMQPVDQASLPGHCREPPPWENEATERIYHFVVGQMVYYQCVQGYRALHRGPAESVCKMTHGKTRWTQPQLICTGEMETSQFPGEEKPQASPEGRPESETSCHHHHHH
Briefly: BLI (Octet RED96e), His-tagged IL-2Rα on HIS1K sensor; column printed as 'affinity (nM)'. In general terms: BLI is a label-free optical method that tracks binding on a fibre tip over time.

Experiment [2] has as its target T2, IL-2 receptor IL-2Rα/β/γ on human peripheral blood Treg cells (human, UniProt P01589 22-272; P14784 27-551; P31785 23-369).
T2 sequence (looked up) 1: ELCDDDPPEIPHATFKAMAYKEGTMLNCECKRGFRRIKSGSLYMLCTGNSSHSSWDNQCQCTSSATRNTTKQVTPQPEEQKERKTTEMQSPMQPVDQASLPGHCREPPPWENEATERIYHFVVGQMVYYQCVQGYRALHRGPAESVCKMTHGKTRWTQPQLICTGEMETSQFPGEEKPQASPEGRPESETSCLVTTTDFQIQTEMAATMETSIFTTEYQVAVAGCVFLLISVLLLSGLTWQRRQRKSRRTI
T2 sequence (looked up) 2: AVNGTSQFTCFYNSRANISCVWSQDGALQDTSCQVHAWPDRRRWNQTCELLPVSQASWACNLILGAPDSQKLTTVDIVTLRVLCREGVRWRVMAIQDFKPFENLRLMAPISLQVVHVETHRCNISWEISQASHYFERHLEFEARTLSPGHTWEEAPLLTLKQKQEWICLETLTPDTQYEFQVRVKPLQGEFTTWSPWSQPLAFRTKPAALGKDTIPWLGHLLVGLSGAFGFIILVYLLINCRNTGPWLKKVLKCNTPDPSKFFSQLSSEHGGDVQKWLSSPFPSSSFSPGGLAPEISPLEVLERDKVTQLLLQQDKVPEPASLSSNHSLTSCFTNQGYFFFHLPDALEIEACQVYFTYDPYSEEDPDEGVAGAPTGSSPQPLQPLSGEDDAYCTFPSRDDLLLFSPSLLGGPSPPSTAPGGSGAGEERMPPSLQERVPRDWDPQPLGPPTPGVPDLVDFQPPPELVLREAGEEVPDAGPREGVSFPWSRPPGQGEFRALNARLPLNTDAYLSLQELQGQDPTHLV
T2 sequence (looked up) 3: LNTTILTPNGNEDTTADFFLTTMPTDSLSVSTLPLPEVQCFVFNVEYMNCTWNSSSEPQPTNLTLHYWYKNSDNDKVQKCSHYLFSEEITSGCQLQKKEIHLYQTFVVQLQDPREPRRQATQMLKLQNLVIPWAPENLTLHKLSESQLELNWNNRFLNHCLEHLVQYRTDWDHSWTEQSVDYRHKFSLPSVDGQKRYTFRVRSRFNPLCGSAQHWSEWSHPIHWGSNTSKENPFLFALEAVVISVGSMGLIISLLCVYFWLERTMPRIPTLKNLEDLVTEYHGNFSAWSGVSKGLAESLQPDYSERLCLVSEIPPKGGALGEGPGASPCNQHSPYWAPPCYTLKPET
Briefly: cell-based or functional assay.

The target in experiment [3] is T3, medium-affinity receptor IL-2Rβ/γ on human cells (Mo7e cell line; human CD8+T and NK cells) (human, UniProt P14784 27-551; P31785 23-369).
T3 sequence (looked up) 1: T2 sequence (looked up) 2
T3 sequence (looked up) 2: T2 sequence (looked up) 3
Briefly: cell-based or functional assay.

The target of experiment [4] is T4, high-affinity receptor IL-2Rα/β/γ on CTLL2 cells (mouse-derived cell line) (mouse, UniProt P01590 22-268; P16297 27-539; P34902 23-369).
T4 sequence (looked up) 1: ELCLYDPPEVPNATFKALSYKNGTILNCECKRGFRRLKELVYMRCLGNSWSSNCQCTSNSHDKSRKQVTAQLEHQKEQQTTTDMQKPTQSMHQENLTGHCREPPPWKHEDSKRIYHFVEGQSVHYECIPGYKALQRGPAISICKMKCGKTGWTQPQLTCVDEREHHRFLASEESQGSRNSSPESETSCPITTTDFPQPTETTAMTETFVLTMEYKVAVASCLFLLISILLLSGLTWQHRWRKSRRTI
T4 sequence (looked up) 2: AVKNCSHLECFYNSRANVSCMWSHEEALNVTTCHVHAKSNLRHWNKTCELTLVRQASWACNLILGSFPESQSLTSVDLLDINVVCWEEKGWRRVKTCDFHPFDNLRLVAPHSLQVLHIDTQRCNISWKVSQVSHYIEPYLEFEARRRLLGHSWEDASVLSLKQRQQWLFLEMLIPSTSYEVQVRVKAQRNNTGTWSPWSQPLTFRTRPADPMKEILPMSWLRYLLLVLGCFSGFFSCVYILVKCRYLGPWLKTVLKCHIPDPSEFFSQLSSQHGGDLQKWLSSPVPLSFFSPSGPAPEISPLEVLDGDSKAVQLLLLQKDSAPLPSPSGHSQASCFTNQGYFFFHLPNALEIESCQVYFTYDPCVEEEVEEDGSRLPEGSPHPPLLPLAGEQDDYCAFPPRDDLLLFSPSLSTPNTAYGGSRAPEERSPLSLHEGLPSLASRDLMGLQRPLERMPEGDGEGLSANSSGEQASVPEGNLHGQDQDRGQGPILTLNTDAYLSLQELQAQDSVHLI
T4 sequence (looked up) 3: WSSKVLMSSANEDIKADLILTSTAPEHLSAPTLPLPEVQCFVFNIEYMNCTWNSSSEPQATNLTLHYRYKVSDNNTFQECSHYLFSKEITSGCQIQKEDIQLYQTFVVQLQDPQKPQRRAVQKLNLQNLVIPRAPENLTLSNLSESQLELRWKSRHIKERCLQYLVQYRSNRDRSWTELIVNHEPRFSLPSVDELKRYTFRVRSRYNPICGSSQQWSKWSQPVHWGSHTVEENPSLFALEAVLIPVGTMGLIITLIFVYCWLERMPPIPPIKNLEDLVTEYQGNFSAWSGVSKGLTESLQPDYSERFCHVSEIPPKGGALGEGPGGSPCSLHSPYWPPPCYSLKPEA
Briefly: cell-based or functional assay.

Experiment [5] has as its target T1, his-tagged human IL-2Rα recombinant …. The experiment in a line: BLI (Octet RED96e), His-tagged IL-2Rα on HIS1K sensor. The procedure: The HIS1K biosensor (Fortebio, 18-5120) was immersed into 200 μL buffer (PBS, pH 7.4, 0.02% tween-20, 0.1% BSA) for 10 minutes, for wetting treatment. Then, human IL-2Rα with His tag (SinoBiological, Cat #10165-H08H) was dissolved in PBS pH 7.4, 0.02% tween-20 and 0.1% BSA, and the sensor was placed in 200 μL of such solution. The sensor was placed in 200 μL buffer (PBS pH 7.4, 0.02% tween-20, 0.1% BSA) to wash off the excess IL-2Rα.

Experiment [6] addresses T5, IL-2Rβ/γ-Fc heterodimer (IL-2Rβ-Fc-hole with IL-2Rγ-Fc-knob).
T5 construct: Co-expressed in HEK293 cells and purified with Protein A and Superdex 200
Briefly: SPR (Biacore), IL-2Rβ/γ-Fc captured on Protein A chip. The procedure: The Protein A sensor chip (GE, Cat #29127556) of the Biacore instrument (Biacore T200, GE) was used to capture IL-2Rβ/γ-Fc, wherein IL-2Rβ/γ-Fc was diluted with 1×HBS-EP to 1 μg/mL, and flowed at a flow rate of 10 μL/min for 30 seconds. […] The Biacore instrument (Biacore X100, GE) was used to detect the reaction in real time, to obtain association and dissociation curves. After each cycle of dissociation was completed, the chip was washed and regenerated with 10 mM Gly-HCl pH 1.5.
On the technique in general: In SPR one partner is held on a chip, and binding of the other changes the refractive index at the surface.

For experiment [7], the target named is T3, medium-affinity receptor IL-2Rβ/γ on …. Briefly: cell-based or functional assay. The source holds these as a separate data set.
Experiment [8] shares this target. Briefly: cell-based or functional assay. This is another data set of the same source.

B1: IL-2-24 (N26Q/N29S/N88R) (ligand)
chain: MAPTSSSTKKTQLQLEHLLLDLQMILQGISNYKNPKLTRMLTFKFYMPKKATELKHLQCLEEELKPLEEVLNLAQSKNFHLRPRDLISRINVIVLELKGSETTFMCEYADETATIVEFLNRWITFAQSIISTLT
As to B1, the equilibrium dissociation constant (Kd) in experiment [1] is 11.8 nM. For the same molecule, in experiment [2], the “EC50 (STAT5 phosphorylation in human Treg cells)” value came to 0.209 nM and the “relative biological activity (STAT5 phosphorylation in human Treg cells)” value worked out at 0.2%.

B2: PEGylated IL-2-10 (ligand)
chain: B1 chain with S30N, N31S, F43A, L73G, R89N
modifications: mono-PEGylated with 20 kDa mPEG-butyraldehyde (sodium cyanoborohydride); site not stated
notes: also called PEG-IL-2-10
For B2, in experiment [3], the “EC50 (STAT5 phosphorylation in human NK cells)” value is 2 nM and the “relative activity (STAT5 phosphorylation in human NK cells)” value amounted to 24%. In addition, in experiment [4], the “EC50 (CTLL2 cell proliferation)” value was determined as 35.3 nM and the “relative biological activity (CTLL2 cell proliferation)” value stood at 0.2%. Also, in experiment [5], the binding result is “no binding (tested: 133.3 nM)”. In experiment [6], this molecule returned a Kd of 0.86 nM, a koff of 0.00119 s⁻¹ and an association rate constant (kon) of 1.38e+06 M⁻¹ s⁻¹. Further, in experiment [7], the “EC50 (Mo7e cell proliferation)” value amounted to 13.2 nM and the “relative biological activity (Mo7e cell proliferation)” value amounted to 19%. In addition, in experiment [8], the “EC50 (STAT5 phosphorylation in human CD8+T cells)” value was found to be 8.97 nM and the “relative activity (STAT5 phosphorylation in human CD8+T cells)” value stood at 26%. In experiment [2], the “EC50 (STAT5 phosphorylation in human Treg cells)” value stood at 2.65 nM and the “relative biological activity (STAT5 phosphorylation in human Treg cells)” value amounted to 0.02%.
